42 substances from US5777073 can be followed below.

Like-named read-outs stand apart in the source and are kept apart here.

Assay [1] concerns the target CRF receptors on rat anterior pituitary cells (rat).
For assay [2] the target is unchanged. The source holds these as a separate data set.
Assay [3] shares this target. The source holds these as a separate data set.
For assay [4] the target is unchanged. This is another data set of the same source.
Assay [5] shares this target. The source holds these as a separate data set.
Assay [6] has the same target. The source holds these as a separate data set.
For assay [7] the target is unchanged. The source holds these as a separate data set.
Assay [8] shares this target. The source holds these as a separate data set.
For assay [9] the target is unchanged. This is another data set of the same source.
For assay [10] the target is unchanged. The source holds these as a separate data set.
Assay [11] shares this target. This is another data set of the same source.
The target is the same in assay [12]. This is another data set of the same source.
The target is the same in assay [13]. This is another data set of the same source.
For assay [14] the target is unchanged. The source holds these as a separate data set.
Assay [15] shares this target. The source holds these as a separate data set.
The target is the same in assay [16]. The source holds these as a separate data set.
For assay [17] the target is unchanged. This is another data set of the same source.
Assay [18] has the same target. This is another data set of the same source.
The target of another assay is hCRF-RA1 (human) (UniProt P34998). The assay is described as follows: radioligand binding assay.
In assay [19] the target is CRF receptors on rat anterior pituitary cells (rat). The source holds these as a separate data set.
The target is the same in assay [20]. The source holds these as a separate data set.
Assay [21] has the same target. The source holds these as a separate data set.
Assay [22] has the same target. This is another data set of the same source.
Assay [23] has the same target. This is another data set of the same source.
Assay [24] has the same target. The source holds these as a separate data set.
Assay [25] shares this target. This is another data set of the same source.
The target of a further assay is CRF-RA. The assay is described as follows: binding assay.
The target of assay [26] is CRF receptors on rat anterior pituitary cells (rat). This is another data set of the same source.
Assay [27] shares this target. The source holds these as a separate data set.
The target is the same in assay [28]. This is another data set of the same source.
For assay [29] the target is unchanged. The source holds these as a separate data set.
Assay [30] has the same target. The source holds these as a separate data set.
For assay [31] the target is unchanged. This is another data set of the same source.
The target is the same in assay [32]. This is another data set of the same source.
For assay [33] the target is unchanged. This is another data set of the same source.
For assay [34] the target is unchanged. This is another data set of the same source.
For assay [35] the target is unchanged. This is another data set of the same source.
Assay [36] has the same target. This is another data set of the same source.
The target is the same in assay [37]. This is another data set of the same source.
The target is the same in assay [38]. This is another data set of the same source.
For assay [39] the target is unchanged. The source holds these as a separate data set.

“(cyclo 30-33) D-Phe^12, Nle^21,38, Glu^30, D-His^32, Lys^33 !-r/hCRF(12-41) (peptide)” returned an in vitro biopotency: inhibition of ACTH secretion (times the Standard) in assay [1] of 80.3.

In assay [2], “(cyclo 30-33) D-Phe^12, Nle^21,38, Glu^30, D-His^32, Lys^33, CML^37 !-r/hCRF(12-41) (peptide)” showed an in vitro biopotency: inhibition of ACTH secretion (times the Standard) of 16.

Regarding “(cyclo 30-33) Ac-Asp^9, D-Phe^2, Nle^21,38, CML^27, Glu^30, D-His^32, Lys^33 -r/hCRF(9-41) (peptide)”, the in vitro biopotency: inhibition of ACTH secretion (times Peptide IV) in assay [3] was determined as 2.22.

The substance “(cyclo 30-33) Ac-Asp^9, D-Phe^12, Nle^21,38, Glu^30, Lys^33 !-r/hCRF(9-41) (peptide)” displayed an in vitro biopotency: inhibition of ACTH secretion (times the Standard) in [4] of 172.

“(cyclo 30-33) Ac-D-Phe^12, Nle^21,38, CML^27, Glu^30, Lys^33 !-r/hCRF(12-41) (peptide)”: the in vitro biopotency: inhibition of ACTH secretion (times Peptide IV) in [5] worked out at 1.65.

On to “(cyclo 30-33) Ac-Asp^9, D-Phe^12, Nle^21,38, CML^27, Glu^30, Lys^33 !-r/hCRF(9-41) (peptide)”, for which, in assay [6], the in vitro biopotency: inhibition of ACTH secretion (times Peptide IV) amounted to 1.2.

In assay [7], “(cyclo 30-33) D-Phe^12, Nle^21,38, Glu^30, Lys^33 !-r/hCRF(10-41) (peptide)” came in with an in vitro biopotency: inhibition of ACTH secretion (times the Standard) of 31.6.

In assay [8], “(cyclo 29-33) D-Phe^12, Nle^21,38, Glu^29, D-His^32, Lys^33 -r/hCRF(12-41) (peptide)” yielded an in vitro biopotency: inhibition of ACTH secretion (times the Standard) of 26.

“(bicyclo 20-23, 30-33) D-Phe^12, Nle^21,38, Lys^23,33, Glu^30 !-r/hCRF(12-41) (peptide)” registered an in vitro biopotency: inhibition of ACTH secretion (times the Standard) in assay [9] of 8.3.

In assay [10], “(cyclo 30-33) D-Tyr^12, Glu^13, Lys^17,33, Nle^21,38, Glu^30, Asn^32, Arg^36 !-r/hCRF(12-41) (peptide)” returned an in vitro biopotency: inhibition of ACTH secretion (times the Standard) of 49.

“(cyclo 30-33) D-Phe^12, Nle^18,21, Glu^30, Lys^33 !-Sucker Urotensin I(12-41) (peptide)” yielded an in vitro biopotency: inhibition of ACTH secretion (times Peptide IV) in assay [11] of 1.32.

The substance “(cyclo 29-32) D-Leu^11, Nle^17, Glu^29, D-Ala^31, Lys^32 !-Sauvagine (11-40) (peptide)” showed an in vitro biopotency: inhibition of ACTH secretion (times the Standard) in [12] of 15.

As for “(cyclo 30-33) D-Tyr^12, Nle^21,38, Glu^30, Asn^32, Lys^33, Arg^36 !-r/hCRF (12-41) (peptide)”, the in vitro biopotency: inhibition of ACTH secretion (times the Standard) in assay [13] stood at 79.

Regarding “(cyclo 30-33) D-Phe^12, Nle^21,38, CML^27, Glu^30, D-His^32, Lys^33 !-r/hCRF(11-41) (peptide)”, the in vitro biopotency: inhibition of ACTH secretion (times Peptide IV) in assay [14] was 1.26.

For the substance “(cyclo 30-33) Ac-D-Phe^12, Nle^21,38, CML^27, Glu^30, D-His^32, Lys^33 !-r/hCRF(12-41) (peptide)”, in [15], the in vitro biopotency: inhibition of ACTH secretion (times the Standard) stood at 43.

Consider “(cyclo 30-33) D-Phe^12, CML^15, Nle^21,38, Glu^30, imBzlD-His^32, Lys^33 !-r/hCRF (12-41) (peptide)”, for which the in vitro biopotency: inhibition of ACTH secretion (times the Standard) in [16] was 23.5.

Take “(cyclo 30-33) Ac-Asp^9, D-Phe^12, CML^18,27, Nle^21,38, Glu^30, Lys^33 -r/hCRF(9-41) (peptide)”: in assay [17], the in vitro biopotency: inhibition of ACTH secretion (times the Standard) came to 13.

As to “(cyclo 30-33) Ac-D-Phe^12, Nle^21,38, Glu^30, D-His^32, Lys^33 !-r/hCRF(12-41) (peptide)”, the in vitro biopotency: inhibition of ACTH secretion (times Peptide IV) in [18] is 1.24.

Turning to “(cyclo 30-33) I^125 -D-Tyr^12, Glu^30, Lys^33, Nle^21,38 !-r/hCRF(12-41) (peptide)”, the Kd with hCRF-RA1 (human) came to 2 nM.

As for “(cyclo 30-33) Ac-Thr^11, D-Phe^12, Nle^21,38, CML^27, Glu^30, D-His^32, Lys^33 !-r/hCRF(11-41) (peptide)”, the in vitro biopotency: inhibition of ACTH secretion (times Peptide IV) in [19] turned out to be 1.4.

Consider “(cyclo 30-33) D-Phe^12, Nle^21,38, CML^27, Glu^30, D-His^32, Lys^33 !-r/hCRF(12-41) (peptide)”, for which, in [20], the in vitro biopotency: inhibition of ACTH secretion (times the Standard) turned out to be 53.6.

Substance “(cyclo 30-33) D-Phe^12, Nle^21,38, Glu^30, Lys^33 !-r/hCRF(11-41) (peptide)” displayed an in vitro biopotency: inhibition of ACTH secretion (times the Standard) in assay [21] of 40.3.

For the substance “(cyclo 30-33) D-Phe^12, Nle^21,38, Glu^30, Lys^33 !-r/hCRF(12-41) (peptide)”, the in vitro biopotency: inhibition of ACTH secretion (times the Standard) in assay [22] worked out at 33. The substance also displayed an intrinsic CRF activity in [23] of less than 3%.

In turn, “(cyclo 30-33) D-Phe^12, Nle^21,38, Glu^30, D-His^32, Lys^33 !-r/hCRF(11-41) (peptide)” came in with an in vitro biopotency: inhibition of ACTH secretion (times Peptide IV) in assay [24] of 0.78.

“(cyclo 30-33) D-Phe^12, Nle^21,38, Glu^30, D-2Nal^32, Lys^33 !-r/hCRF(12-41) (peptide)” had an in vitro biopotency: inhibition of ACTH secretion (times the Standard) in [25] of 18.

“(cyclo 30-33) D-Tyr^12, Nle^21,38, Glu^30, Lys^33 !-r/hCRF(12-41) (peptide)”: in the assay with CRF-RA, the equilibrium dissociation constant (Kd) worked out at 2 nM. The in vitro biopotency: inhibition of ACTH secretion (times the Standard) in assay [26] stood at 5.6.

“(cyclo 30-33) Ac-D-Phe^12, Nle^21,38, Glu^30, Lys^33 !-r/hCRF(12-41) (peptide)” displayed an in vitro biopotency: inhibition of ACTH secretion (times the Standard) in [4] of 36.5.

In assay [4], “(cyclo 30-33) Ac-Leu^10, D-Phe^12, Nle^21,38, Glu^30, Lys^33 !-r/hCRF(10-41) (peptide)” showed an in vitro biopotency: inhibition of ACTH secretion (times the Standard) of 34.

Regarding “(cyclo 30-33) D-Phe^12, CML^15, Nle^21,38, Glu^30, D-His^32, Lys^33 !-r/hCRF(12-41) (peptide)”, the in vitro biopotency: inhibition of ACTH secretion (times the Standard) in [27] came to 20.3.

As to “(cyclo 30-33) Ac-Thr^11, D-Phe^12, Nle^21,38, Glu^30, D-His^32, Lys^33 !-r/hCRF(11-41) (peptide)”, in assay [28], the in vitro biopotency: inhibition of ACTH secretion (times Peptide IV) is 3.08.

As to “(cyclo 30-33) D-Phe^12, Nle^18,21, Glu^30, D-Ala^32, Lys^33 !-Carp Urotensin I (12-41) (peptide)”, the in vitro biopotency: inhibition of ACTH secretion (times Peptide IV) in assay [29] is 0.831.

“(cyclo 30-33) D-Phe^12, Nle^21,38, Glu^30, Lys^33 !-r/hCRF(9-41) (peptide)” yielded an in vitro biopotency: inhibition of ACTH secretion (times the Standard) in assay [30] of 33.8.

For “(cyclo 30-33) Ac-Thr^11, D-Phe^12, CML^15,27, Nle^21,38, Glu^30, D-His^32, Lys^33 -r/hCRF(11-41) (peptide)”, the in vitro biopotency: inhibition of ACTH secretion (times Peptide IV) in assay [31] is 1.11.

Consider “(bicyclo 20-23, 30-33) D-Phe^12, Nle^21,38, D-Ala^22, LyS^23,33, Glu^30, D-His^32 !-r/hCRF(12-41) (peptide)”, for which the in vitro biopotency: inhibition of ACTH secretion (times the Standard) in [32] came out at 8.61.

For the substance “(cyclo 30-33) D-Phe^12, CML^19, Nle^21,38, Glu^30, D-His^32, Lys^33 !-r/hCRF(12-41) (peptide)”, the in vitro biopotency: inhibition of ACTH secretion (times the Standard) in [33] was found to be 4.5.

As to “(cyclo 30-33) D-Phe^12, CML^14, Nle^21,38, Glu^30, D-His^32, Lys^33 !-r/hCRF(12-41) (peptide)”, the in vitro biopotency: inhibition of ACTH secretion (times the Standard) in [34] worked out at 15.

For “(cyclo 30-33) Ac-Thr^11, D-Phe^12, CML^18,27, Nle^21,38, Glu^30, D-His^32, Lys^33 !-r/hCRF(11-41) (peptide)”, the in vitro biopotency: inhibition of ACTH secretion (times Peptide IV) in assay [35] came to 1.94.

Turning to “(cyclo 30-33) Ac-Thr^11, D-Phe^12, Nle^21,38, Glu^30, Lys^33 !-r/hCRF(11-41) (peptide)”, the in vitro biopotency: inhibition of ACTH secretion (times the Standard) in assay [4] worked out at 64.

Turning to “(cyclo 30-33) Ac-Asp^9, D-Phe^12, Nle^21, CML^27,37, Glu^30, Lys^33 -r/hCRF(9-41) (peptide)”, in assay [36], the in vitro biopotency: inhibition of ACTH secretion (times the Standard) turned out to be 1.4.

Substance “(cyclo 30-33) D-Phe^12, Nle^21,38, Glu^30, D-Arg^32, Lys^33 !-r/hCRF(12-41) (peptide)” returned an in vitro biopotency: inhibition of ACTH secretion (times the Standard) in assay [37] of 60.

With “(cyclo 29-32) D-Leu^11, Nle^17, Glu^29, Lys^32 !-sauvagine(11-40) (peptide)”, in assay [38], the in vitro biopotency: inhibition of ACTH secretion (times the Standard) was 22.

Regarding “(cyclo 30-33) D-Phe^12, Nle^21,38, Glu^30, D-Glu^32, Lys^33 !-r/hCRF(12-41) (peptide)”, in assay [39], the in vitro biopotency: inhibition of ACTH secretion (times the Standard) turned out to be 10.
